Test results: patent US20200317768A1 (published 2020)
Positions count from the first letter of the chain named.

Experiments:
[1] = biological target: T1, cynomolgus monkey FcγRIIa2 extracellular domain with C-terminal His-tag (cynomolgus monkey); test: SPR (Biacore), antibody captured on chip, FcgR extracellular domain as analyte, 25 C
T1 construct: Expressed in FreeStyle 293 cells and purified; also called cyno FcγRIIa2; cynoFcgRIIa2; not shown: C-terminal His-tag
T1 chain: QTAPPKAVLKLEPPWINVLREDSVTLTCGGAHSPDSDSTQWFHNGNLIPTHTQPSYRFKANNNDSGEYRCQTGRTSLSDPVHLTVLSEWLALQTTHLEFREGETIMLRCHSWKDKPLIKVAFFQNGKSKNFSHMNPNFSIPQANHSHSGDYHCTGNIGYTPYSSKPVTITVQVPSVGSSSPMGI
Protocol: (§1) The kinetic analysis of interactions between these antibodies and FcγR was carried out using BIACORE® T200 or BIACORE® 4000 (GE Healthcare). HBS-EP+ (GE Healthcare) was used as the running buffer, and the measurement temperature was set to 25° C. A chip produced by immobilizing Protein A. Protein A/G or mouse anti-human IgG kappa light chain (BD Biosciences) onto a Series S Sensor Chip CM4 or CM5 (GE Healthcare) by the amine-coupling method was used. […] After the measurement, the antibody captured on the chip was washed off by allowing reaction with 10 mM glycine-HCl, pH1.5 and 25 mM NaOH so that the chip was regenerated and used repeatedly. The sensorgrams obtained as measurement results were analyzed by the 1:1 Langmuir binding model using the BIACORE® Evaluation Software to calculate the binding rate constant ka (L/mol/s) and dissociation rate constant kd (l/s), and the dissociation constant KD (mol/L) was calculated from these values. […] Regarding such interactions, KD values were calculated using the following 1:1 binding model described in BIACORE® T100 Software Handbook BR1006-48 Edition AE.
(§2) The resultant variants were expressed using M103202L889-SK1 as light chain and their affinity to human and cynoFcγRs were evaluated (Table 20).

[2] = biological target: T2, cynomolgus monkey FcγRIIa3 extracellular domain with C-terminal His-tag (cynomolgus monkey); test: as above
T2 construct: Expressed in FreeStyle 293 cells and purified; also called cyno FcγRIIa3; cynoFcgRIIa3; not shown: C-terminal His-tag
T2 chain: T1 chain with K127I, N130K, H133P, Q142R
Protocol: as §1, §2

[3] = biological target: T3, human FcγRIIaH extracellular domain with C-terminal His-tag (human, UniProt P12318 34-217); test: as above
T3 construct: Expressed in FreeStyle 293 cells and purified; also called human FcγRIIa (type H); FcgRIIaH; not shown: C-terminal His-tag
T3 sequence: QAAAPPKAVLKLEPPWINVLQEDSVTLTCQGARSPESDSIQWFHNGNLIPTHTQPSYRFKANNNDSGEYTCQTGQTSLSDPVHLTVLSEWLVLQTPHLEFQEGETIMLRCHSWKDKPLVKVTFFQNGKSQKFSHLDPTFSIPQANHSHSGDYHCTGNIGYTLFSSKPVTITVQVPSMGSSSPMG
Protocol: as §1, §2

[4] = biological target: T4, human FcγRIIaR extracellular domain with C-terminal His-tag (human, UniProt P12318 34-217); test: as above
T4 construct: Expressed in FreeStyle 293 cells and purified; also called human FcγRIIa (type R); FcgRIIaR; not shown: C-terminal His-tag
T4 chain: T3 sequence with H134R
Protocol: as §1, §2

[5] = biological target: T5, cynomolgus monkey FcγRIIa1 extracellular domain with C-terminal His-tag (cynomolgus monkey); test: as above
T5 construct: Expressed in FreeStyle 293 cells and purified; also called cyno FcγRIIa1; cynoFcgRIIa1; not shown: C-terminal His-tag
T5 chain: T1 chain with T95P, A121T, K127I, S128A, N130K, N135D, Q142R
Protocol: as §1, §2

[6] = biological target: T6, human FcγRIIb extracellular domain with C-terminal His-tag (human, UniProt P31994 43-217); test: as above
T6 construct: Expressed in FreeStyle 293 cells and purified; also called humanFcgRIIb; not shown: C-terminal His-tag
T6 sequence: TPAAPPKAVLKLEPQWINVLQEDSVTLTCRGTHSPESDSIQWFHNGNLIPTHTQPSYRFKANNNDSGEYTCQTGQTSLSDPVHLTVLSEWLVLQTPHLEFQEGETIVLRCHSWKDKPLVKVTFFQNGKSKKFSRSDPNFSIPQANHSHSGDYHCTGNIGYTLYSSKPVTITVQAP
Protocol: as §1, §2

[7] = biological target: T7, human FcγRIIIaV extracellular domain with C-terminal His-tag (human, UniProt P08637 17-208); test: as above
T7 construct: Expressed in FreeStyle 293 cells and purified; also called FcgRIIIaV; not shown: C-terminal His-tag
Protocol: as §1, §2

[8] = biological target: T8, human FcγRIIIaV extracellular domain, His-tagged (human, UniProt P08637 17-208); test: SPR (BIACORE); KD of SG1 divided by KD of variant;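 also: relative to parent M103205H795-SG1 carrying the SG1 human heavy chain constant region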
T8 construct: also called FcgRIIIaV; not shown: C-terminal His-tag
T8 sequence (P08637 17-208 F176V): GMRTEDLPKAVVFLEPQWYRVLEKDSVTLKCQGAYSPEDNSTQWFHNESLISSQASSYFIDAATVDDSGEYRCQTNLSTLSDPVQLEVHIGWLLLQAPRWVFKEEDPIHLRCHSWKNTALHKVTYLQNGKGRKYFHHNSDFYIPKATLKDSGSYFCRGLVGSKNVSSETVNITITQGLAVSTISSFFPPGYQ

T7 sequence (P08637 17-208 F176V): as above

B1: MS_M103205H795-SG1/M103202L889-SK1 (antibody, human IgG1, kappa)
heavy: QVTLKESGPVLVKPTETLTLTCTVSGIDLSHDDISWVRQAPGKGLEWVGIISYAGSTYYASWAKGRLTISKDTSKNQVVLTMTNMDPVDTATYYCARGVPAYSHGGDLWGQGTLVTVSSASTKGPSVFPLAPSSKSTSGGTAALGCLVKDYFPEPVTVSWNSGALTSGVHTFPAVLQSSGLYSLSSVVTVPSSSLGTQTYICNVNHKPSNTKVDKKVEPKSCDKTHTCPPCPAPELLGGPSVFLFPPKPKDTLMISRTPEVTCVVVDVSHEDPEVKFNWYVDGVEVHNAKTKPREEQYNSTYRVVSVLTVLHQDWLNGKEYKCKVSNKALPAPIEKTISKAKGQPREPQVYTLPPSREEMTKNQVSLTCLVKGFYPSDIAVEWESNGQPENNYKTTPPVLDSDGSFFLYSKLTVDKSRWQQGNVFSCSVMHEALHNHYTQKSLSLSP
light: DIVMTQSPATLSLSPGERATLSCTSSQSVYHANWLSWFQQKPGQPPKLLIYWASTLAYGVPSRFSGSGSGTDFTLTISSLQPEDAATYYCAGGYGGGRYAFGQGTKVEIKRTVAAPSVFIFPPSDEQLKSGTASVVCLLNNFYPREAKVQWKVDNALQSGNSQESVTEQDSKDSTYSLSSTLTLSKADYEKHKVYACEVTHQGLSSPVTKSFNRGEC
notes: Anti-latent myostatin IgG; also called MS1032LO06-SG1
- Kd [1]: 5100 nM
- Kd [2]: 17000 nM
- Kd [3]: 690 nM
- Kd [4]: 1100 nM
- Kd [5]: 3200 nM
- Kd [6]: 4600 nM
- Kd [7]: 810 nM

B2: M103205H795-MY052 / M103202L889-SK1 (antibody, human IgG1, kappa)
heavy: QVTLKESGPVLVKPTETLTLTCTVSGIDLSHDDISWVRQAPGKGLEWVGIISYAGSTYYASWAKGRLTISKDTSKNQVVLTMTNMDPVDTATYYCARGVPAYSHGGDLWGQGTLVTVSSASTKGPSVFPLAPSSKSTSGGTAALGCLVKDYFPEPVTVSWNSGALTSGVHTFPAVLQSSGLYSLSSVVTVPSSSLGTQTYICNVNHKPSNTKVDKKVEPKSCDKTHTCPPCPAPELLNGPSVFLFPPKPKDTLMISRTPEVTCVVVDVSEEDPEVKFNWYVDGVEVHNAKTKPREEQYNSTYRVVSVLTVLHQDWLNGKEYKCKVSNKALPAPIEKTISKAKGQPREPQVYTLPPSREEMTKNQVSLTCLVKGFYPSDIAVEWESNGQPENNYKTTPMVLDSDGSFFLYSKLTVDKSRWQQGNVFSCSVMHEALHNHYTQKSLSLSP
light: B1 light
notes: Fc variant of M103205H795-SG1, expressed with M103202L889-SK1 as light chain; parent of the position 396 variants
- Kd [1]: 1500 nM
- Kd [2]: 3900 nM
- Kd [3]: 830 nM
- Kd [4]: 1400 nM
- Kd [5]: 1400 nM
- Kd [6]: 720 nM
- Kd [7]: 1500 nM

B3: M103205H795-MY168 / M103202L889-SK1 (antibody, human IgG1, kappa)
heavy: B2 heavy with M398A
light: B1 light
notes: Position 396 variant derived from MY052, expressed with M103202L889-SK1 as light chain
- Kd [1]: 2500 nM
- Kd [2]: 10000 nM
- Kd [3]: 1600 nM
- Kd [4]: 2300 nM
- Kd [5]: 2200 nM
- Kd [6]: 1700 nM
- Kd [7]: 8100 nM

B4: M103205H795-MY169 / M103202L889-SK1 (antibody, human IgG1, kappa)
heavy: B2 heavy with M398D
light: B1 light
notes: as for B3
- Kd [1]: 2300 nM
- Kd [2]: 9900 nM
- Kd [3]: 1200 nM
- Kd [4]: 2500 nM
- Kd [5]: 2300 nM
- Kd [6]: 1300 nM
- Kd [7]: 6200 nM

B5: M103205H795-MY170 / M103202L889-SK1 (antibody, human IgG1, kappa)
heavy: B2 heavy with M398E
light: B1 light
notes: as for B3
- Kd [1]: 2400 nM
- Kd [2]: 12000 nM
- Kd [3]: 1700 nM
- Kd [4]: 2500 nM
- Kd [5]: 2300 nM
- Kd [6]: 1600 nM
- Kd [7]: 6300 nM

B6: M103205H795-MY465/M103202L889-SK1 (antibody, human IgG1, kappa)
heavy: B2 heavy with A233K, N238T, E270D, A332K, M398P
light: B1 light
notes: copies: 2 + 2
- KD fold (SG1 = 1) [8]: 0.1 fold

B7: M103205H795-MY466/M103202L889-SK1 (antibody, human IgG1, kappa)
heavy: B2 heavy with A233L, N238T, E270D, A332K, M398P
light: B1 light
notes: copies: 2 + 2
- KD fold (SG1 = 1) [8]: 0.3 fold

B8: M103205H795-MY467/M103202L889-SK1 (antibody, human IgG1, kappa)
heavy: B2 heavy with A233M, N238T, E270D, A332K, M398P
light: B1 light
notes: copies: 2 + 2
- KD fold (SG1 = 1) [8]: 0.2 fold

B9: M103205H795-MY468/M103202L889-SK1 (antibody, human IgG1, kappa)
heavy: B2 heavy with A233N, N238T, E270D, A332K, M398P
light: B1 light
notes: copies: 2 + 2
- KD fold (SG1 = 1) [8]: 0.1 fold

B10: M103205H795-MY469/M103202L889-SK1 (antibody, human IgG1, kappa)
heavy: B2 heavy with A233P, N238T, E270D, A332K, M398P
light: B1 light
notes: copies: 2 + 2
- KD fold (SG1 = 1) [8]: 0.1 fold

B11: M103205H795-MY470/M103202L889-SK1 (antibody, human IgG1, kappa)
heavy: B2 heavy with A233Q, N238T, E270D, A332K, M398P
light: B1 light
notes: copies: 2 + 2
- KD fold (SG1 = 1) [8]: 0.2 fold

B12: M103205H795-MY471/M103202L889-SK1 (antibody, human IgG1, kappa)
heavy: B2 heavy with A233R, N238T, E270D, A332K, M398P
light: B1 light
notes: copies: 2 + 2
- KD fold (SG1 = 1) [8]: 0.2 fold

B13: M103205H795-MY472/M103202L889-SK1 (antibody, human IgG1, kappa)
heavy: B2 heavy with A233S, N238T, E270D, A332K, M398P
light: B1 light
notes: copies: 2 + 2
- KD fold (SG1 = 1) [8]: 0.1 fold

B14: M103205H795-MY473/M103202L889-SK1 (antibody, human IgG1, kappa)
heavy: B2 heavy with A233T, N238T, E270D, A332K, M398P
light: B1 light
notes: copies: 2 + 2
- KD fold (SG1 = 1) [8]: 0.2 fold

B15: M103205H795-MY474/M103202L889-SK1 (antibody, human IgG1, kappa)
heavy: B2 heavy with A233V, N238T, E270D, A332K, M398P
light: B1 light
notes: copies: 2 + 2
- KD fold (SG1 = 1) [8]: 0.2 fold

B16: M103205H795-MY475/M103202L889-SK1 (antibody, human IgG1, kappa)
heavy: B2 heavy with A233W, N238T, E270D, A332K, M398P
light: B1 light
notes: copies: 2 + 2
- KD fold (SG1 = 1) [8]: 0.2 fold

B17: M103205H795-MY476/M103202L889-SK1 (antibody, human IgG1, kappa)
heavy: B2 heavy with A233Y, N238T, E270D, A332K, M398P
light: B1 light
notes: copies: 2 + 2
- KD fold (SG1 = 1) [8]: 0.1 fold
